Results: the supplement of paper PMC10567573

B1: RTN2 (parent)
chain: SERPLEDLRLRLDHLGWVARGTGS

Variants of: B1
Assay: protein stability index of a GFP-peptide fusion (GPS, HEK-293T) (PSI 1-6); higher = more stable
Conditions: c terminus: a fixed tail appended
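Note: lentivirally expressed fusions sorted by FACS into six bins by GFP to DsRed ratio, PSI derived from sequencing read proportions per bin multiplied by bin number.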

Protein stability index, by site and new letter:
G16: F 1.98, Q 3.01, P 2.1, W 1.81
S24: Q 2.61, H 2.03, Y 2.12, T 2.71, E 4.04, N 3.26, R 2.36, V 3.15, D 2.59, M 1.76, W 2.11
W17: A 4.49, H 3.9, G 4.08, N 4.65, Q 4.42, Y 3.48, E 4.11, M 3.49
L15: W 3.5, I 2.28, A 2.88, M 1.89, C 2.15, Y 2.59, F 2.8, T 2.26, E 2.25, G 2.97, Q 2.1
V18: H 3.31, D 4.31, N 3.81, Q 3.02, Y 2.67, I 3.5, R 4.14, K 3.79, W 2.8, P 3.35, E 4.85, M 3.73, T 2.86
G21: Q 2.78, N 2.83, Y 2.42, E 2.05, T 2.08, S 2.68, I 1.61, K 3.71, C 1.6, M 1.96, W 1.68, P 2.33, V 2.09
T22: L 2.11, C 2.75, H 2.49, R 3.6, W 3.11, I 2.48, G 2.23, F 1.3, N 3.95, M 2, Y 2.79
R20: E 4.02, Y 2.34, Q 3.32, T 3.14, L 1.85, K 3.19, H 2.77, N 3.55, F 2.36, C 1.86, M 3.12, P 3.31, S 4.23
